The source of these data is patent publication US20140011732A1 (Novo Nordisk, published 2014).

Starred links: 1 amine or outer side, 2 acyl side, 3 side chain; linkers in the order of their positions; H or OH if unused. Non-standard residues stand in square brackets, D forms with d. Groups on a side chain read outwards from the residue. Primed or numbered codes have the meaning given here. No end group written: not given here. *: point of attachment. C20 diacid = O=C(O)CCCCCCCCCCCCCCCCCCC(=O)*; C18 diacid = O=C(O)CCCCCCCCCCCCCCCCC(=O)*; d(βAsp) = O=C(O)[C@@H](CC(=O)[*:2])N[*:1]; γGlu = O=C(O)[C@H](CCC(=O)[*:2])N[*:1]; 2Nal = N[C@@H](Cc1ccc2ccccc2c1)C(=O)O; Desaminohistidyl = O=C(CCc1c[nH]cn1)*; Trx = NC[C@H]1CC[C@H](C(=O)O)CC1; Trx′ = not defined here; AEEA = NCCOCCOCC(=O)O; Aib = CC(C)(N)C(=O)O; Inp = O=C(O)C1CCNCC1; Bn = c1ccc(C*)cc1

The labels stand for the following.
B1: [ImPr^7,Arg^26,34,Glu^22]GLP-1-(7-37)Lys[2-(2-[2-((S)-4-((S)-4-(12-[4-(16-1H-tetrazol-5-ylhexadecanoylsulfamoyl)butyrylamino]dodecanoylamino)-4-carboxybutyrylam … (peptide)
peptide: HAEGTFTSDVSSYLEEQAAREFIAWLVRGRGK
modifications: ImPr7 (imidazopropionic acid = des-amino-histidine); the added C-terminal Lys carries the acyl side chain printed in the name; C-terminal amide
B2: [desaminoHis^7,Arg^26,Arg^34]GLP-1-(7-37)Lys[2-(2-[2-(2-[2-(2-((R)-3-[trans-4-((9-Carboxynonadecanoylamino]methyl)cyclohexylcarbonylamino]3-carboxypropionylamin … (peptide)
peptide: [Desaminohistidyl]AEGTFTSDVSSYLEGQAAREFIAWLVRGRGK-NH2
modifications: not fully specified (residue 32); printed as [desaminoHis^7,Arg^26,Arg^34]GLP-1-(7-37)Lys[2-(2-[2-(2-[2-(2-((R)-3-[trans-4-((9-Carboxynonadecanoylamino]methyl)cyclohexylcarbonylamino]3-carboxypropionylamino)ethoxy)ethoxy]acetylamino)ethoxy]ethoxy)acetyl]amide
B3: [Aib8,Glu22,Arg26,Glu30,Pro37]GLP-1-((7-37)Lys … (peptide)
peptide: H[Aib]EGTFTSDVSSYLEEQAAREFIEWLVKGRPK
modifications: not fully specified (residue 32); printed as [Aib8,Glu22,Arg26,Glu30,Pro37]GLP-1-(7-37)Lys (2-(2-(3-(2-(2-(2-(2-(2-(2-(2-(2-(2-(2-(2-(2-[4-(S)-carboxy-4-(4-(S)-carboxy-4-(4-{4-[16-(Tetrazol-5-yl)hexadecanoylsulfamoyl]butanoylamino}butanoylamino) butyrylamino)butyrylamino]ethoxy)ethoxy)ethoxy)ethoxy)ethoxy)ethoxy)ethoxy)ethoxy)ethoxy)ethoxy)ethoxy)ethoxy) propionylamino)ethoxy)ethoxy) peptide
B4: [DesaminoHis7,Glu22,Arg26,Arg34]GLP-1-(7-37)Lys[2-(2-{2-[2-(2-{2-[4-Carboxy-4-({trans-4-[(19-carboxy-nonadecanoylamino)methyl]cyclohexanecarbonyl}amino)butyryla … (peptide)
peptide: [Desaminohistidyl]AEGTFTSDVSSYLEEQAAREFIAWLVRGRGK([AEEA-AEEA-γGlu-Trx-C20 diacid])-NH2
SMILES: CC[C@H](C)[C@H](NC(=O)[C@H](Cc1ccccc1)NC(=O)[C@H](CCC(=O)O)NC(=O)[C@H](CCCNC(=N)N)NC(=O)[C@H](C)NC(=O)[C@H](C)NC(=O)[C@H](CCC(N)=O)NC(=O)[C@H](CCC(=O)O)NC(=O)[C@H](CCC(=O)O)NC(=O)[C@H](CC(C)C)NC(=O)[C@H](Cc1ccc(O)cc1)NC(=O)[C@H](CO)NC(=O)[C@H](CO)NC(=O)[C@@H](NC(=O)[C@H](CC(=O)O)NC(=O)[C@H](CO)NC(=O)[C@@H](NC(=O)[C@H](Cc1ccccc1)NC(=O)[C@@H](NC(=O)CNC(=O)[C@H](CCC(=O)O)NC(=O)[C@H](C)NC(=O)CCc1c[nH]cn1)[C@@H](C)O)[C@@H](C)O)C(C)C)C(=O)N[C@@H](C)C(=O)N[C@@H](Cc1c[nH]c2ccccc12)C(=O)N[C@@H](CC(C)C)C(=O)N[C@H](C(=O)N[C@@H](CCCNC(=N)N)C(=O)NCC(=O)N[C@@H](CCCNC(=N)N)C(=O)NCC(=O)N[C@@H](CCCCNC(=O)COCCOCCNC(=O)COCCOCCNC(=O)CC[C@H](NC(=O)[C@H]1CC[C@H](CNC(=O)CCCCCCCCCCCCCCCCCCC(=O)O)CC1)C(=O)O)C(N)=O)C(C)C
B5: N-epsilon37{2-[2-(2-{2-[2-((S)-3-carboxy-3-{[1-(19-carboxynonadecanoyl)piperidine-4-carbonyl]amino}propionylamino)ethoxy]ethoxy}acetylamino)ethoxy]ethoxy}acetyl … (peptide)
peptide: H[Aib]EGTFTSDVSSYLEEQAAREFIAWLVRGRK-NH2
modifications: not fully specified (residue 31); printed as N-epsilon37{2-[2-(2-{2-[2-((S)-3-carboxy-3-{[1-(19-carboxynonadecanoyl)piperidine-4-carbonyl]amino}propionylamino)ethoxy]ethoxy}acetylamino)ethoxy]ethoxy}acetyl [Aib8,Glu22,Arg26,Arg34,Lys37]GLP-1-(7-37)amide
B6: N-epsilon20-[2-(2-{2-[(S)-4-Carboxy-4-((S)-4-carboxy-4-{12-[4-(16-(1H-tetrazol-5-yl)hexadecanoylsulfamoyl)butyrylamino]dodecanoylamino}butyrylamino)butyrylamino … (peptide)
peptide: HAEGTFTSDVSSYKEEQAAREFIEWLVKGRP
modifications: Aib8; Lys20 N-epsilon carries the acyl side chain printed in the name; C-terminal amide
B7: N-epsilon30{2-[2-(2-{2-[2-((S)-3-carboxy-3-{[1-(19-carboxynonadecanoyl)piperidine-4-carbonyl]amino}propionylamino)ethoxy]ethoxy}acetylamino)ethoxy]ethoxy}acetyl … (peptide)
peptide: H[Aib]EGTFTSDVSSYLEEQAAREFIKWLVKGRG
modifications: not fully specified (residue 24); printed as N-epsilon30{2-[2-(2-{2-[2-((S)-3-carboxy-3-{[1-(19-carboxynonadecanoyl)piperidine-4-carbonyl]amino}propionylamino)ethoxy]ethoxy}acetylamino)ethoxy]ethoxy}acetyl [Aib8,Glu22,Arg26,Lys30]GLP-1-(7-37)
B8: N-epsilon31{2-[2-(2-{2-[2-((S)-3-carboxy-3-{[1-(19-carboxynonadecanoyl)piperidine-4-carbonyl]amino}propionylamino)ethoxy]ethoxy}acetylamino)ethoxy]ethoxy}acetyl … (peptide)
peptide: H[Aib]EGTFTSDVSSYLEEQAAREFIAKLVKGRG
modifications: not fully specified (residue 25); printed as N-epsilon31{2-[2-(2-{2-[2-((S)-3-carboxy-3-{[1-(19-carboxynonadecanoyl)piperidine-4-carbonyl]amino}propionylamino)ethoxy]ethoxy}acetylamino)ethoxy]ethoxy}acetyl [Aib8, Glu22, Arg26,Lys 31]GLP-1-(7-37)
B9: N-ε^20({2-[2-(2-{2-[2-((R)-3-carboxy-3-{[1-(17-carboxyheptadecanoyl)piperidine-4-carbonyl]amino}propionylamino)ethoxy]ethoxy}acetylamino)ethoxy]ethoxy}acetyl) … (peptide)
peptide: H[Aib]EGTFTSDVSSYK([AEEA-AEEA-d(βAsp)-Inp-C18 diacid])EGQAAREFIEWLT(Bn)KGRG-NH2
modifications: not fully specified; printed as N-ε^20({2-[2-(2-{2-[2-((R)-3-carboxy-3-{[1-(17-carboxyheptadecanoyl)piperidine-4-carbonyl]amino}propionylamino)ethoxy]ethoxy}acetylamino)ethoxy]ethoxy}acetyl) [Aib^8,Lys^20,Arg^28,Glu^30,Thr(O-benzyl)^33,]GLP-1-(7-37)amide
notes: Arg26 used; also called [Aib^8,Lys^20,Arg^26,Glu^30,Thr(O-benzyl)^33,]GLP-1-(7-37)amide derivative
B10: N-epsilon … (peptide)
peptide: HAEGTFTSDVSKYLEEQAAKEFIAWLVQGRG
modifications: not fully specified; Aib8; Lys18 N-epsilon carries the acyl side chain printed in the name
B11: N-epsilon … (peptide)
peptide: H[Aib]EGTFTSDVSKYLE[Aib]QAAREFIAWLVR[Aib]RG
modifications: not fully specified (residue 12); printed as N-epsilon 18-[2-(2-[2-(2-[2-(2-((R)-3-[trans-4-((9-Carboxynonadecanoylamino]methyl)cyclohexylcarbonylamino]3-carboxypropionylamino)ethoxy)ethoxy]acetylamino)ethoxy]ethoxy)acetyl][Aib8, 22,35, Lys18, Arg26,34]GLP-1-(7-37)
B12: N-epsilon31-(2-{2-[2-(2-{2-[2-((S)-3-Carboxy-3-{[1-(19-carboxy-nonadecanoyl)piperidine-4-carbonyl]amino}propionylamino)ethoxy]ethoxy}acetylamino)ethoxy]ethoxy}a … (peptide)
peptide: H[Aib]EGTFTSDVSSYLEEQAAREFIAKLVRGRG
modifications: not fully specified (residue 25); printed as N-epsilon31-(2-{2-[2-(2-{2-[2-((S)-3-Carboxy-3-{[1-(19-carboxy-nonadecanoyl)piperidine-4-carbonyl]amino}propionylamino)ethoxy]ethoxy}acetylamino)ethoxy]ethoxy}acetyl)[Aib8,Glu22,Arg26,Lys31,Arg34]GLP-1-(7-37)
B13: N-epsilon26-[2-(2-[2-(2-[2-(2-((R)-3-[trans-4-((9-Carboxynonadecanoylamino]methyl)cyclohexylcarbonylamino]3-carboxypropionylamino)ethoxy)ethoxy]acetylamino)etho … (peptide)
peptide: H[Aib]EGTFTSDVSSYLEEQAAKEFIAWLVQGRG
modifications: not fully specified (residue 20); printed as N-epsilon26-[2-(2-[2-(2-[2-(2-((R)-3-[trans-4-((9-Carboxynonadecanoylamino]methyl)cyclohexylcarbonylamino]3-carboxypropionylamino)ethoxy)ethoxy]acetylamino)ethoxy]ethoxy)acetyl][Aib8, Glu22, Gln34]GLP-1-(7-37)
B14: N-alpha8-[2-(4-imidazolyl)acetyl] … (peptide)
peptide: {2‑(4-imidazolyl)acetyl}-AEGTFTSDVSSYLEEQAAREFIAWLVRGRK([AEEA-AEEA-γGlu-Trx′-C20 diacid])
modifications: reading uncertain; also: printed as N-alpha8-[2-(4-imidazolyl)acetyl] N-epsilon37-[2-(2-{2-[2-(2-{2-[(S)-4-Carboxy-4-({trans-4-[(19-carboxynonadecanoylamino)methyl]cyclohexanecarbonyl}amino)butyrylamino]ethoxy}ethoxy)acetylamino]ethoxy}ethoxy)acetyl][Glu22,Arg26,Arg34,Lys37]GLP-1-(8-37)
notes: GLP-1-(8-37) = residues 2-31 of the entry
B15: N-alpha37-[2-(2-{2-[2-(2-{2-[(S)-4-Carboxy-4-({trans-4-[(19-carboxynonadecanoylamino)methyl]cyclohexanecarbonyl}amino)butyrylamino]ethoxy}ethoxy)acetylamino]eth … (peptide)
peptide: HAEGTFTSDVSSYLEEQAAREFIAWLVRGRK
modifications: desaminoHis7; Lys37 is bound to the peptide via its epsilon amino group (epsilon-Lys37); its N-alpha carries the acyl side chain printed in the name
B16: N-epsilon37-[2-(2-{2-[(S)-4-Carboxy-4-((S)-4-carboxy-4-{12-[4-(16-(1H-tetrazol-5-yl)hexadecanoylsulfamoyl)butyrylamino]dodecanoylamino}butyrylamino)butyrylamino … (peptide)
peptide: B15 peptide
modifications: Aib8; Lys37 N-epsilon carries the acyl side chain printed in the name; C-terminal amide
B17: N-epsilon26-[2-(2-{2-[(S)-4-Carboxy-4-((S)-4-carboxy-4-{12-[4-(16-(1H-tetrazol-5-yl)hexadecanoylsulfamoyl)butyrylamino]dodecanoylamino}butyrylamino)butyrylamino … (peptide)
peptide: HAEGTFTSDVSSYLEGQAAKEFIAWLKR
modifications: Aib8; N-epsilon26 (so in the source) carries the acyl side chain printed in the name
notes: GLP-1-(7-34) = residues 1-28 of the entry

The assay concerns the target T1, human serum albumin (HSA) (human, UniProt P02768 25-609, biotinylated).
T1 construct: also called biotinylated HSA
In words: competition SPA on biotinylated HSA, 125I acylated GLP-1 tracer.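 Further: streptavidin SPA beads carrying biotinylated HSA, competition incubated 20 h at room temperature, plates then read on a TopCount counter.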
Protocol: Streptavidin-SPA beads (GE Healthcare RPNQ0009) were incubated with biotinylated HSA for 5 hours. The beads were washed with buffer to remove unbound HSA. […] After 20 hours of gentle rocking at room temperature the plates were centrifuged and counted on a TopCounter.
Molecule H[Aib]EGTFTSDVSSYLEEQAAREFIAWLVRGRK([AEEA-AEEA-γGlu-Trx-C20 diacid])-NH2 gave an EC50 of 800 to 2000 nM.

Molecule B1 registered an EC50 of 1 to 100 nM.

Consider B2, for which the EC50 was over 2000 nM.

In turn, HAEGTFTSDVSSYLEEQAAREFIEWLVKGRPK (Aib8; the added C-terminal Lys carries the acyl side chain printed in the name) [[Aib8,Glu22,Arg26,Glu30,Pro37]GLP-1-(7-37)Lys …] had a concentration for a half-maximal effect (EC50) of 150 to 300 nM.

B3 registered an EC50 of 300 to 800 nM.

[Desaminohistidyl]AEGTFTSDVSSYLEGQAAREFIAWLVRGRGK([AEEA-AEEA-γGlu-Inp-C20 diacid]) [[DesaminoHis7,Arg26,34]-GLP-1 …] had a half-maximal effective concentration (EC50) of over 2000 nM.

B4 showed a concentration giving a half-maximal response (EC50) of 800 to 2000 nM.

Turning to B5, the EC50 lay in the range of 300 to 800 nM.

B6: the EC50 lay in the range of 1 to 100 nM.

H[Aib]EGTFTSDVSSYK([AEEA-AEEA-d(βAsp)-Inp-C18 diacid])EGQAARE[2Nal]IEWLVKGRG-NH2 came in with an EC50 of 800 to 2000 nM.

On to B7, for which the 50% effective concentration (EC50) was in the range of 150 to 300 nM.

In the case of B8, the EC50 lay in the range of 100 to 150 nM.

For the molecule H[Aib]EGT[2Nal]TSDVSSYK([AEEA-AEEA-d(βAsp)-Inp-C18 diacid])EGQAAREFIEWLVKGRG-NH2, the concentration for a half-maximal effect (EC50) lay in the range of 150 to 300 nM.

Regarding B9, the EC50 fell in the range of 300 to 800 nM.

B10 registered a concentration giving a half-maximal response (EC50) of 800 to 2000 nM.

Consider B11, for which the 50% effective concentration (EC50) was 800 to 2000 nM.

In the case of B12, the EC50 lay in the range of 150 to 300 nM.

B13 gave a concentration for a half-maximal effect (EC50) of 100 to 150 nM.

On to B14, for which the EC50 was 150 to 300 nM.

For the molecule B15, the concentration for a half-maximal effect (EC50) lay within 1 to 100 nM.

Molecule HAEGTFTSDVSSYLEEQAAREFIAWLVRGRK (Aib8; Lys37 N-epsilon carries the acyl side chain printed in the name) came in with an EC50 of 1 to 100 nM.

In turn, B16 gave an EC50 of 800 to 2000 nM.

For the molecule B17, the EC50 fell in the range of 1 to 100 nM.

As a reminder, the EC50 is the concentration at which the effect is half-maximal. A higher EC50 goes with a less potent agent.
